Results reported in patent US20030088884A1.

Experiments:
[1] = biological target: human LGR8, recombinant, expressed in 293T cells (human) (UniProt Q8WXD0); assay: competition with 5 nM biotinylated ovine INSL3 for 293T cells expressing LGR8, 4 C 24 h, 125I-streptavidin detection
[2] = biological target: human LGR7, long form (LGR7(1), 757 amino acids), recombinant, expressed in 293T cells (human), Q9HBX9; assay: cell-based or functional assay
Sequence of human LGR7, long form (LGR7(1), 757 amino acids), recombinant, expressed in 293T cells (human), Q9HBX9 (Q9HBX9 whole entry): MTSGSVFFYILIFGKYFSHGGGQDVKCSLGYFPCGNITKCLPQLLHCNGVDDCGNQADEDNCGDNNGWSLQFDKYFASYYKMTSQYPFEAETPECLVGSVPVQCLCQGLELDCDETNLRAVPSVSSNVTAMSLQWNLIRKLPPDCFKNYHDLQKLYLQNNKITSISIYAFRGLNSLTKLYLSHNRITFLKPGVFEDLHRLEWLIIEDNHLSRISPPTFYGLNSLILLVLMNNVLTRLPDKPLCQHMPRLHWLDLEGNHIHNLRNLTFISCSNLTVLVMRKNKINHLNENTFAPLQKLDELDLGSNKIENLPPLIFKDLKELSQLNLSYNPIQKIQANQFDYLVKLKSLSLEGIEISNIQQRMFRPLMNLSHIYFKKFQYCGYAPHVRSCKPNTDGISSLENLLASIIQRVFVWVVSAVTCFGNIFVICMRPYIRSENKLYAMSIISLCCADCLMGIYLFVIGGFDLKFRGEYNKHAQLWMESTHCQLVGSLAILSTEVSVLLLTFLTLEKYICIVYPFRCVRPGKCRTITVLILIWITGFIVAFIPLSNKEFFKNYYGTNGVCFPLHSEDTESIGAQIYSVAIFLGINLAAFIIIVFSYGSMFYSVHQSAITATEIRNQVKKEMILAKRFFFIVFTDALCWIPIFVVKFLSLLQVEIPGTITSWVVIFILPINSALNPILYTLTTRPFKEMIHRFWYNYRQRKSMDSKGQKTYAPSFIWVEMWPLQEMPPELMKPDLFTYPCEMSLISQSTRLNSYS

Sequence of UniProt Q8WXD0 (Q8WXD0 whole entry): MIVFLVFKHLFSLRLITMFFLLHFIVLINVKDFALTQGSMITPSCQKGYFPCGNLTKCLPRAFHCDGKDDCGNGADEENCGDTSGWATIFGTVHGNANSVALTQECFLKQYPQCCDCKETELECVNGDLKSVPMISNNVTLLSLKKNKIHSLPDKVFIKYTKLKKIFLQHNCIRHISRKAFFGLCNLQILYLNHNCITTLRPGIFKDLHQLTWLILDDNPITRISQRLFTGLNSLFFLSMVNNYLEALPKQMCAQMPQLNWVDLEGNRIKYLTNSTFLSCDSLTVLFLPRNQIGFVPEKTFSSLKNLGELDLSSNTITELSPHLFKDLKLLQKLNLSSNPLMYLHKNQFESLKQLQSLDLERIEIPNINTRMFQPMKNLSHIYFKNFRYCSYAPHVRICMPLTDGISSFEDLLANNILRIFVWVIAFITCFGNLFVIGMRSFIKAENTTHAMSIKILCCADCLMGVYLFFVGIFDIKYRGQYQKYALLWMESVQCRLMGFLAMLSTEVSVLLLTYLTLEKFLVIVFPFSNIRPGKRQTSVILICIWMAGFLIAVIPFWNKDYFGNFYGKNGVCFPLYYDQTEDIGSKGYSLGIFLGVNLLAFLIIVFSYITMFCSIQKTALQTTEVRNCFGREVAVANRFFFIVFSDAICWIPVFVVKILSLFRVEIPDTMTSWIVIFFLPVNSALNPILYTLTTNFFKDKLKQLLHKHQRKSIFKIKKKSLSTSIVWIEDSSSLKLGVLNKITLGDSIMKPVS

Row | ED50 [1] [nM] | cAMP production by 293T cells expressing human LGR7 [2] [nM] | Molecule
1 | 12 | – | rat INSL3, chemically synthesized (from UniProt Q9WUK0 103-128; Q9WUK0 103-128) (ligand)
2 | – | 0.1 | porcine relaxin, P01348 161-182; P01348 25-56 (ligand) chain 1: RMTLSEKCCQVGCIRKDIARLC chain 2: QSTNDFIKACGRELVRLWVEICGSVSWGRTAL
